From patent US20230137562A1, “TAU AGGREGATION INHIBITORS” (priority 2017, published 2023)
Values joined by “and” are separate entries in the source; they are usually repeats but may differ in a detail not shown here. Identical values can stand only once.

Legend:
Ac-VQIINK-NH2 = target: T1, Ac-VQIINK-NH2; assay: cell-based or functional assay
T1 peptide: Ac-VQIINK-NH2

His-Tau40P301L Tau = His-Tau40P301L Tau (UniProt P10636-8 1-441); assay: cell-based or functional assay
His-Tau40P301L Tau, sequence (P10636 other isoform, or with tags, fused parts or gaps limits assumed): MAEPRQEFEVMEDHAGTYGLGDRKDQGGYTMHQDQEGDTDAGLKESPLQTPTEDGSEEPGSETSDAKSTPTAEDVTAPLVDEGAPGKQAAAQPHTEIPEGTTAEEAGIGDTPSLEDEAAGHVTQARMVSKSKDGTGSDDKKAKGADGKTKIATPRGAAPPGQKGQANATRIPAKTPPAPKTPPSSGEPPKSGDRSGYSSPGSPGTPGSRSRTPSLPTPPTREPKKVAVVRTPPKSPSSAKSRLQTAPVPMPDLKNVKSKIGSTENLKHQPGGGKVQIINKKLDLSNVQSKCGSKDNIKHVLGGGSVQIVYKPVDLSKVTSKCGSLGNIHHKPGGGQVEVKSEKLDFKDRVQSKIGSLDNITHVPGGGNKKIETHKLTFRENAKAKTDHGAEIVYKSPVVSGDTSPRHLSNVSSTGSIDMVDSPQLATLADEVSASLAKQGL

Row | Binder | IC50 (µM), VQIINK Inhibition (ThT) (Ac-VQIINK-NH2) | IC50 (µM), Tau40 assay (ThT) (His-Tau40P301L Tau)
1 | KIRLYWW | 2.86 µM | 5.73 µM
2 | WKIHIWWR | 2.01 µM | 5.75 µM
3 | RIWIRVW | 2.14 µM | 6.36 µM
4 | RIWIRIW | 3.17 µM | 6.47 µM
5 | RIRVWIF | 2.8 µM | 6.53 µM and 6.89 µM
6 | IRIWIW | 2.94 µM | 6.77 µM
7 | RIRLWIW | 4.63 µM | 7.07 µM
8 | RIRIWVW | 2.3 µM | 7.07 µM
9 | WRIWIR | 11.8 µM | 7.22 µM
10 | WRIWIRLW | 3.97 µM | 7.32 µM
11 | WRIRARW | 4.07 µM | 8.01 µM
12 | WRIRIRA | 8.28 µM | 8.31 µM
13 | IRLWVW | 1.63 µM | 8.77 µM
14 | FRIRIKHY | 3.61 µM | 9.45 µM
15 | IRLWIW | 1.83 µM | 9.6 µM
16 | RIRLEWW | 3.89 µM | 9.8 µM
17 | IWLRLW | 2.29 µM | 9.93 µM
18 | WRIRIRF | 42.8 µM | 10.8 µM
19 | RIRIRW | 10.8 µM | 10.9 µM
20 | IWIRLW | 2.12 µM | 11.4 µM
21 | WWIRIRYWK | 1.89 µM | 1.02 µM and 1.12 µM
22 | WRARARW | 29.1 µM | 12 µM
23 | ERIRIRW | 5.98 µM | 12.2 µM
24 | WRFRLYLR | 2.81 µM | 47 µM
25 | WRIRWRYW | 3.46 µM | 0.42 µM and 0.41 µM
26 | WRIRLRYW | 4.13 µM | 1.02 µM and 1.32 µM
27 | WIRIRIW | 0.81 µM and 1.72 µM | 2.03 µM and 2.04 µM
28 | WKLKLRWW | 0.82 µM | 2.06 µM
29 | WRLWFWWR | 1.19 µM | 1.82 µM
30 | RIRILIL | 1.64 µM | 2.15 µM
